Laboratory results as given in patent US20200140552A1 (Sanofi, published 2020).
Changes are numbered by the printed parent chain.

T1: human CD3 (SPR antigen of Example 2) (human)
T1 chain: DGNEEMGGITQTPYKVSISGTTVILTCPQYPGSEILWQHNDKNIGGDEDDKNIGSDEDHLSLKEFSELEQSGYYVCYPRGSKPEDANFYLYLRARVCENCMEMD

B1: CD38VH1xCD28cvnxCD3low trispecific binding protein (other)
VH 1: QVQLQESGPGLVKPSQTLSLTCTVSGFSLSDYGVHWVRQPPGKGLEWLGVIWAGGGTNYNPSLKSRKTISKDTSKNQVSLKLSSVTAADTAVYYCARDKGYSYYYSMDYWGQGTTVTVS
VL 1: DIVLTQSPASLAVSPGQRATITCRASESVEYYVTSLMQWYQQKPGQPPKLLIFAASNVESGVPARFSGSGSGTDFTLTINPVEANDVANYYCQQSRKVPYTFGQGTKLEIK
VH 2: QVQLVESGGGVVQPGRSLRLSCAASGFTFTKAWMHWVRQAPGKGLEWVAQIKDKSNSYATYYADSVKGRFTISRDNSKNTLYLQMNSLRAEDTAVYYCRGVYYALSPFDYWGQGTLVTVSS
VL 2: DIVMTQTPLSLSVTPGQPASISCKSSQSLVHNNGNTYLSWYLQKPGQSPQLLIYKVSNRFSGVPDRFSGSGSGTDFTLKISRVEAEDVGVYYCGQGTQYPFTFGGGTKVEIK
VH 3: QVQLVQSGAEVVKPGASVKVSCKASGYTFTSYAMHWVKEAPGQRLEWIGYIYPGQGGTNYNQKFQGRATLTADTSASTAYMELSSLRSEDTAVYFCARTGGLRRAYFTYWGQGTLVTVSS
VL 3: DIVLTQSPATLSLSPGERATISCRASQSVSSYGQGFMHWYQQKPGQPPRLLIYGASSRATGIPARFSGSGSGTDFTLTISPLEPEDFAVYYCQQNKEDPWTFGGGTKLEIK
notes: also called CD38VH1xCD28cvnxCD3mid/low
B2: CD38VH1xCD28supxCD3low trispecific binding protein (other)
VH 1: QVQLVQSGAEVVKPGASVKVSCKASGYTFTSYYIHWVRQAPGQGLEWIGSIYPGNVNTNYAQKFQGRATLTVDTSISTAYMELSRLRSDDTAVYYCTRSHYGLDWNFDVWGKGTTVTVSS
VL 1: DIQMTQSPSSLSASVGDRVTITCQASQNIYVWLNWYQQKPGKAPKLLIYKASNLHTGVPSRFSGSGSGTDFTLTISSLQPEDIATYYCQQGQTYPYTFGQGTKLEIK
VH 2: B1 VH 2
VL 2: B1 VL 2
VH 3: B1 VH 3
VL 3: B1 VL 3
notes: also called CD38VH1xCD28supxCD3mid/low
B3: antiCD38_C2-CD38-1_VH3-VL3 (antibody, human IgG1, kappa, V domains shown)
VH: B1 VH 3 with Y32F, A33N, Q55N
VL: DIVLTQSPATLSLSPGERATISCRASESVDSYGNGFMHWYQQKPGQPPRLLIYLASSRATGIPARFSGSGSGTDFTLTISPLEPEDFAVYYCQQNKEDPWTFGGGTKLEIKR
B4: CD38HHY1370xCD28supxCD3mid trispecific binding protein (other)
light 1: DIVMTQTPLSLSVTPGQPASISCKSSQSLVHNNANTYLSWYLQKPGQSPQSLIYKVSNRFSGVPDRFSGSGSGTDFTLKISRVEAEDVGVYYCGQGTQYPFTFGSGTKVEIKGQPKAAPDIQMTQSPSSLSASVGDRVTITCQASQNIYVWLNWYQQKPGKAPKLLIYKASNLHTGVPSRFSGSGSGTDFTLTISSLQPEDIATYYCQQGQTYPYTFGQGTKLEIKTKGPSRTVAAPSVFIFPPSDEQLKSGTASVVCLLNNFYPREAKVQWKVDNALQSGNSQESVTEQDSKDSTYSLSSTLTLSKADYEKHKVYACEVTHQGLSSPVTKSFNRGEC
heavy 1: QVQLVQSGAEVVKPGASVKVSCKASGYTFTSYYIHWVRQAPGQGLEWIGSIYPGNVNTNYAQKFQGRATLTVDTSISTAYMELSRLRSDDTAVYYCTRSHYGLDWNFDVWGKGTTVTVSSSQVQLVESGGGVVQPGRSLRLSCAASGFTFTKAWMHWVRQAPGKQLEWVAQIKDKSNSYATYYADSVKGRFTISRDDSKNTLYLQMNSLRAEDTAVYYCRGVYYALSPFDYWGQGTLVTVSSRTASTKGPSVFPLAPCSRSTSESTAALGCLVKDYFPEPVTVSWNSGALTSGVHTFPAVLQSSGLYSLSSVVTVPSSSLGTKTYTCNVDHKPSNTKVDKRVESKYGPPCPPCPAPEAAGGPSVFLFPPKPKDTLMISRTPEVTCVVVDVSQEDPEVQFNWYVDGVEVHNAKTKPREEQFNSTYRVVSVLTVLHQDWLNGKEYKCKVSNKGLPSSIEKTISKAKGQPREPQVCTLPPSQEEMTKNQVSLSCAVKGFYPSDIAVEWESNGQPENNYKTTPPVLDSDGSFFLVSKLTVDKSRWQEGNVFSCSVMHEALHNHYTQKSLSLSLG
heavy 2: QVQLVESGGGVVQPGRSLRLSCAASGFTFSSYGMHWVRQAPGKGLEWVAVIWYDGSNKYYADSVKGRFTISGDNSKNTLYLQMNSLRAEDTAVYYCARMFRGAFDYWGQGTLVTVSSASTKGPSVFPLAPCSRSTSESTAALGCLVKDYFPEPVTVSWNSGALTSGVHTFPAVLQSSGLYSLSSVVTVPSSSLGTKTYTCNVDHKPSNTKVDKRVESKYGPPCPPCPAPEAAGGPSVFLFPPKPKDTLMISRTPEVTCVVVDVSQEDPEVQFNWYVDGVEVHNAKTKPREEQFNSTYRVVSVLTVLHQDWLNGKEYKCKVSNKGLPSSIEKTISKAKGQPREPQVYTLPPCQEEMTKNQVSLWCLVKGFYPSDIAVEWESNGQPENNYKTTPPVLDSDGSFFLYSKLTVDKSRWQEGNVFSCSVMHEALHNHYTQKSLSLSLG
light 2: AIQMTQSPSSLSASVGDRVTITCRASQGIRNDLGWYQQKPGKAPKLLIYAASSLQSGVPSRFSGSGSGTDFTLTISGLQPEDSATYYCLQDYIYYPTFGQGTKVEIKRTVAAPSVFIFPPSDEQLKSGTASVVCLLNNFYPREAKVQWKVDNALQSGNSQESVTEQDSKDSTYSLSSTLTLSKADYEKHKVYACEVTHQGLSSPVTKSFNRGEC
B5: CD38VH1xCD28supxCD3mid trispecific binding protein (other)
light 1: B4 light 1
heavy 1: B4 heavy 1
heavy 2: QVQLVQSGAEVVKPGASVKVSCKASGYTFTSYAMHWVKEAPGQRLEWIGYIYPGQGGTNYNQKFQGRATLTADTSASTAYMELSSLRSEDTAVYFCARTGGLRRAYFTYWGQGTLVTVSSASTKGPSVFPLAPCSRSTSESTAALGCLVKDYFPEPVTVSWNSGALTSGVHTFPAVLQSSGLYSLSSVVTVPSSSLGTKTYTCNVDHKPSNTKVDKRVESKYGPPCPPCPAPEAAGGPSVFLFPPKPKDTLMISRTPEVTCVVVDVSQEDPEVQFNWYVDGVEVHNAKTKPREEQFNSTYRVVSVLTVLHQDWLNGKEYKCKVSNKGLPSSIEKTISKAKGQPREPQVYTLPPCQEEMTKNQVSLWCLVKGFYPSDIAVEWESNGQPENNYKTTPPVLDSDGSFFLYSKLTVDKSRWQEGNVFSCSVMHEALHNHYTQKSLSLSLG
light 2: DIVLTQSPATLSLSPGERATISCRASQSVSSYGQGFMHWYQQKPGQPPRLLIYGASSRATGIPARFSGSGSGTDFTLTISPLEPEDFAVYYCQQNKEDPWTFGGGTKLEIKRTVAAPSVFIFPPSDEQLKSGTASVVCLLNNFYPREAKVQWKVDNALQSGNSQESVTEQDSKDSTYSLSSTLTLSKADYEKHKVYACEVTHQGLSSPVTKSFNRGEC
notes: also called antiCD38_C2-CD38-1_VH1-VL1xCD28supxCD3mid

Key:
[1] = target: T1, human CD3 (SPR antigen of Example 2); experiment: SPR; KD rounded to integer; the cell gives two values for mid/low, the second taken as the CD3low construct
[2] = target: T2, recombinant human CD38 (SPR antigen of Example 2) (human, UniProt P28907 43-300); experiment: as above
[3] = target: human CD28 (SPR antigen of Example 2) (human, UniProt P10747 19-152); experiment: as above
[4] = target: T2, recombinant human CD38 (SPR antigen of …); experiment: SPR against recombinant protein; the cell gives two values for mid/low, the second taken as the CD3low construct
hCD38-his (SEQ ID NO: 2) = target: T3, hCD38-his (SEQ ID NO: 2) (human, UniProt P28907 45-300); experiment: SPR (summary table; Table K value rounded)
T3 construct: also called human CD38-histag (ID2); soluble extracellular domain of humanCD38

[5] = target: T2, recombinant human CD38 (SPR antigen of …); experiment: SPR
[6] = target: T1, human CD3 (SPR antigen of Example 2); experiment: SPR; KD rounded to integer per the table's title
[7] = target: T4, human CD38 expressed on the surface of recombinant murine preB::300.19 cells (human, UniProt P28907 1-300); experiment: flow cytometry on hCD38-expressing murine preB::300.19 cells
T4 construct: whole, on cells; also called hCD38-expressing cells; cells expressing human CD38

[8] = target: T1, human CD3 (SPR antigen of Example 2); experiment: SPR; KD rounded to integer; the cell gives two values for mid/low, the first taken as the CD3mid construct
[9] = target: T2, recombinant human CD38 (SPR antigen of …); experiment: as above
[10] = target: T2, recombinant human CD38 (SPR antigen of …); experiment: SPR against recombinant protein; the cell gives two values for mid/low, the first taken as the CD3mid construct

Binder	Kd [1]	Kd [2]	Kd [3]	Kd [4]	other results
B1	59 nM	6 nM	34 nM	6 nM	
B2	76 nM	6 nM	4 nM	6 nM	
B3					Kd (hCD38-his (SEQ ID NO: 2)): 0.48 nM
B4					Kd [5]: 1 nM; Kd [6]: 48 nM
B5					EC50 [7]: 11 nM; Kd [8]: 21 nM; Kd [9]: 4 nM; Kd [10]: 4 nM
